No end group written: not given here.

This note sets out measurements from publication PMC11499381.

In assay [1] the target is N-V_(1–154)-CTR/N-V_(155–238)-RAMP1 (human) (UniProt O60894).
The target in assay [2] is CTR-C-V_(1–154)/RAMP1 (human) (UniProt O60894).
Assay [3] addresses CTR/RAMP1-C-V_(155–238) (human) (UniProt O60894).
The target in assay [4] is CTR-C-V_(1–154)/RAMP1-C-V_(155–238) (human) (UniProt O60894).
Assay [5] addresses WT CTR/RAMP1 (AMY1 receptor) (human) (UniProt O60894).
Assay [6] addresses N-V_(1–154)-CTR/RAMP1 (human) (UniProt O60894).
Assay [7] deals with WT CTR (human).
Sequence of WT CTR (human) (P30988 25-474): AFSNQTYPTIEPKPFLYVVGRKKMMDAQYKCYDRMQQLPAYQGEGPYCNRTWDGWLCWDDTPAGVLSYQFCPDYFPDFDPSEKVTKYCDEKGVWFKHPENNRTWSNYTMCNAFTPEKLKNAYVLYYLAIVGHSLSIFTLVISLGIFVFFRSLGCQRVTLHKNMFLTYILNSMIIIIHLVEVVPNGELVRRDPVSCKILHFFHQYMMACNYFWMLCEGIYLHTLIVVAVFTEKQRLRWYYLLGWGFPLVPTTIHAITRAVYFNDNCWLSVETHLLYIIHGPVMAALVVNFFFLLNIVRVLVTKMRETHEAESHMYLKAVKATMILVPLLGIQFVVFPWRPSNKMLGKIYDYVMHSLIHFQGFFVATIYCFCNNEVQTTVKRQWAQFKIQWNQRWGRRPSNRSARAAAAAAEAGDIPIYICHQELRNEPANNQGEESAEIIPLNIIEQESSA
Assay [8] has as its target CTR/N-V_(155–238)-RAMP1 (human) (UniProt O60894).
Assay [9] has as its target N-V_(1–154)-CTR (human).
The target of assay [10] is CTR-C-V_(1–154) (human).

With “Human αCGRP (from UniProt P06881 83-119) (peptide)”, the Emax of h-αCGRP-stimulated cAMP production, Cos7 cells, percent of the matched WT curve in assay [1] is 77.3 % of WT; in [2] it was 81.2 % of WT; in assay [3], 83.5 % of WT; in [4] it was 71.5 % of WT; in [6], 74 % of WT; in assay [8], 74.9 % of WT. Also, the pEC50 of h-αCGRP-stimulated cAMP production, Cos7 cells, 15 min in assay [1] amounted to 8.83 pEC50; in assay [2] it was 8.41 pEC50; in assay [3], 8.62 pEC50; in assay [4] it was 7.52 pEC50; in assay [6], 8.92 pEC50; in assay [8], 8.16 pEC50. The same molecule yielded a pEC50 of h-αCGRP-stimulated cAMP production, Cos7 cells, 15 min (WT control of the N-terminal series) in assay [5] of 9.1 pEC50. The same molecule gave a pEC50 of h-αCGRP-stimulated cAMP production, Cos7 cells, 15 min, CTR without RAMP1 in assay [7] of 6.63 pEC50.

CGNLSTCMLGTYTQDFNKFHTFPQTAIGVGAP (ends and bridges not checked; cysteine pairing not given here) [Human calcitonin]: the fold loss of calcitonin potency (cAMP production) against WT CTR, Cos7 cells was 10 fold in [9] and 3 fold in assay [10].
